Paper PMC1326243 (Nucleic Acids Research, 2006)

Target: the molecule itself
Assay: cross-linking

Row | Protein | stoichiometry N
1 | B.subtilis RecU Holliday-junction resolvase (enzyme, B. subtilis, UniProt P39792 1-206, looked up) MIRYPNGKTFQPKHSVSSQNSQKRAPSYSNRGMTLEDDLNETNKYYLTNQIAVIHKKPTPVQIVNVHYPKRSAAVIKEAYFKQSSTTDYNGIYKGRYIDFEAKETKNKTSFPLQNFHDHQIEHMKQVKAQDGICFVIISAFDQVYFLEADKLFYFWDRKEKNGRKSIRKDELEETAYPISLGYAPRIDYISIIEQLYFSPSSGAKG | 2
2 | Bacillus subtilis LrpC (natural protein, B. subtilis, UniProt P96582 1-144, looked up) MKLDQIDLNIIEELKKDSRLSMRELGRKIKLSPPSVTERVRQLESFGIIKQYTLEVDQKKLGLPVSCIVEATVKNADYERFKSYIQTLPNIEFCYRIAGAACYMLKINAESLEAVEDFINKTSPYAQTVTHVIFSEIDTKNGRG | ≥ 2
